# Reference: the supplement of paper PMC12764529
# ± gives the half width of the 95% confidence interval.
# Tests used:
# [1] = folding stability dG unfold from trypsin proteolysis; higher = more stable
# Procedure, shortened: (§1)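 K50 was inferred by Bayesian fitting of sequencing counts obtained after protease digestion of designed mini-proteins. Unfolding free energy was derived by comparison with a sequence-predicted unfolded-state K50 and a shared folded-state K50, for each protease or both combined. The mini-proteins were under 80 residues, had no cysteine, were carried in a PA-tagged cDNA display construct, and were kept only if AlphaFold2 dimer inter-PAE exceeded 15.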
# [2] = folding stability dG unfold (combined trypsin and chymotrypsin); higher = more stable
# Procedure, shortened: as §1
# [3] = folding stability dG unfold from chymotrypsin proteolysis; higher = more stable
# Procedure, shortened: as §1
sequence,measurement,setting,value
SAGGATIELEAEEHPETKKITIYVKSENPILTIEKIAKELKEKEDDIELTLVNEDGVPYTIKLEDLISAGGS [r8_236_TrMRF],folding stability dG unfold,[1],-0.957 ± 0.47 kcal/mol
same,folding stability dG unfold,[2],0.217 ± 0.3 kcal/mol
same,folding stability dG unfold,[3],0.38 ± 0.2 kcal/mol
SAGGATIELEVLLEDGTLVRVRAELDEDGRLVSVEVEVRRLEPPPPPPPPERTETRVETRTEYRPEESAGGS [r8_270_TrROS_Hall],folding stability dG unfold,[1],2.73 ± 0.35 kcal/mol
same,folding stability dG unfold,[2],2.95 ± 0.48 kcal/mol
same,folding stability dG unfold,[3],3.23 ± 0.52 kcal/mol
SAGGATITVEPAPGDSVVALAEFGDSLALVTFYPKEATAKVTVFGPNGIPSTATFTIKPGEELVITGSAGGS [r8_11_TrMRF],folding stability dG unfold,[1],1.25 ± 0.079 kcal/mol
same,folding stability dG unfold,[2],1.47 ± 0.13 kcal/mol
same,folding stability dG unfold,[3],1.59 ± 0.096 kcal/mol
SAGGATLTLKPGDEITLTLTVTVTVTNEDGSTSTFTTTVTLTLRIEPAPPPPPVTVERDADGNLRVTLSAGG [r13_401_TrROS_Hall],folding stability dG unfold,[1],2.35 ± 0.089 kcal/mol
same,folding stability dG unfold,[2],2.48 ± 0.18 kcal/mol
same,folding stability dG unfold,[3],2.46 ± 0.091 kcal/mol
SAGGATPLPDGGYRLTYTVKLSPSESVEDAPKAAAALAEKYGVTPVAITVDPSTGTVTIDILLPPEVRSAGG [r13_178_JUSTAS],folding stability dG unfold,[1],1.01 ± 0.046 kcal/mol
same,folding stability dG unfold,[2],1.44 ± 0.095 kcal/mol
same,folding stability dG unfold,[3],1.68 ± 0.11 kcal/mol
SAGGAVEVKEIKILPPVLDPEGDPSNPLLRVEITTKITENTPEGKKILEKTKTYLVSPENLEEVLKKLSAGG [r13_149_JUSTAS],folding stability dG unfold,[1],2.05 ± 0.065 kcal/mol
same,folding stability dG unfold,[2],2.18 ± 0.13 kcal/mol
same,folding stability dG unfold,[3],1.98 ± 0.07 kcal/mol
SAGGAVVTPETEGDRTFVTTTDPESGSRTVTVTTYDPTTNTATTTTYFVPPDGVPTRVATTTTPLPPTSAGG [r13_768_JUSTAS],folding stability dG unfold,[1],1.2 ± 0.077 kcal/mol
same,folding stability dG unfold,[2],1.44 ± 0.13 kcal/mol
same,folding stability dG unfold,[3],1.49 ± 0.097 kcal/mol
SAGGDEDDWRPIEIPLYIRNPENGHLFQITPMKIWVPDNLTIEMEMEMFDPDDGKVEKHKMTFTIPAKSAGG [r13_206_TrROS],folding stability dG unfold,[1],1.2 ± 0.088 kcal/mol
same,folding stability dG unfold,[2],1.64 ± 0.22 kcal/mol
same,folding stability dG unfold,[3],2.09 ± 0.21 kcal/mol
SAGGDEDKPKPKIEPKKEIEIVLPYPEDEVTPEELKARIEEETGEKITEIEVTRIPNSNEYKVKFTVESAGG [r13_457_JUSTAS],folding stability dG unfold,[1],0.227 ± 0.04 kcal/mol
same,folding stability dG unfold,[2],0.577 ± 0.13 kcal/mol
same,folding stability dG unfold,[3],0.68 ± 0.15 kcal/mol
SAGGDFKPPVPTTQVLTFTIETSPEDPEKAKEIAEKLKKELLEKGAVKIEVTLDPEPGTVTVTVTLVKLSAG [r5_512_JUSTAS],folding stability dG unfold,[1],1.95 ± 0.069 kcal/mol
same,folding stability dG unfold,[2],2.51 ± 0.19 kcal/mol
same,folding stability dG unfold,[3],2.92 ± 0.063 kcal/mol
SAGGDIKFEIGLELLPDGILVIRGSVEVRMGGQSVTYEFIIIVKIKPIPPPPPPPKPKYNPEDGKWKSAGGS [r8_269_TrROS],folding stability dG unfold,[1],2.32 ± 0.076 kcal/mol
same,folding stability dG unfold,[2],2.58 ± 0.22 kcal/mol
same,folding stability dG unfold,[3],2.89 ± 0.11 kcal/mol
SAGGDKKKVKIHIFPPPGMPMDNFANYIQDQLGWDRNNIKVEPMDSPQEAERRAEKNGKPEIVIFFRSAGGS [r8_245_TrROS],folding stability dG unfold,[1],-0.216 ± 0.31 kcal/mol
same,folding stability dG unfold,[2],0.456 ± 0.32 kcal/mol
same,folding stability dG unfold,[3],1.02 ± 0.54 kcal/mol
SAGGDKLEDLPLEDVEVLRVEVIPLPDGGVLVVFEFKVSDEEGPERLVRVVVLVENDEARVFVEPLGSAGGS [r16_469_TrMRF],folding stability dG unfold,[1],2.05 ± 0.085 kcal/mol
same,folding stability dG unfold,[2],2.91 ± 0.13 kcal/mol
same,folding stability dG unfold,[3],3.2 ± 0.081 kcal/mol
SAGGDMWMIKVEHPNGRPFQIMINPNKPEISIQFNDGETRTFPIPKDYTIEDLAKELPPGYKVEIHPMSAGG [r13_696_TrROS],folding stability dG unfold,[1],2.25 ± 0.1 kcal/mol
same,folding stability dG unfold,[2],2.4 ± 0.17 kcal/mol
same,folding stability dG unfold,[3],2.46 ± 0.051 kcal/mol
SAGGDNIDVERHPHPNNMYMFSITIPPDYPLKIRYPNGPKHEIPIPDPNATIHFMFPPDEPIEIEIYPSAGG [r13_82_TrROS],folding stability dG unfold,[1],1.12 ± 0.019 kcal/mol
same,folding stability dG unfold,[2],1.2 ± 0.083 kcal/mol
same,folding stability dG unfold,[3],1.25 ± 0.12 kcal/mol
SAGGDPDGKPKIEIKIKDINVEPDPDNGYYRATIKIRFPNGREINFDIPMPPGQTAEQVKEQAREMIQSAGG [r13_578_TrROS],folding stability dG unfold,[1],1.77 ± 0.025 kcal/mol
same,folding stability dG unfold,[2],1.45 ± 0.17 kcal/mol
same,folding stability dG unfold,[3],1.24 ± 0.095 kcal/mol
SAGGDPGKPTSVTLTLTVPKDKKTVKLEVTFNPETGEAVITFPGSSKTVTLPFGSLPDVLDAAKKLLYSAGG [r13_439_TrMRF],folding stability dG unfold,[1],2.31 ± 0.063 kcal/mol
same,folding stability dG unfold,[2],2.49 ± 0.07 kcal/mol
same,folding stability dG unfold,[3],2.65 ± 0.035 kcal/mol
SAGGDPLVLEFDGVTVVYDPKTKTLVVFAPSSEVERLVKALGPKFEPLEIFELEDGSVVMLVRIKPESAGGS [r8_415_TrMRF],folding stability dG unfold,[1],3.53 ± 0.12 kcal/mol
same,folding stability dG unfold,[2],4.35 ± 0.13 kcal/mol
same,folding stability dG unfold,[3],4.53 ± 0.1 kcal/mol
SAGGDPNGKWVTINIPIWIPGPPEQAEMIAESIMEELGFEITDVKVEPHPDDPNWVRIDITLTFRKKSAGGS [r8_479_TrROS],folding stability dG unfold,[1],2.74 ± 0.097 kcal/mol
same,folding stability dG unfold,[2],2.83 ± 0.18 kcal/mol
same,folding stability dG unfold,[3],3.03 ± 0.044 kcal/mol
SAGGDPPNIEVVPYRVKFGGKPIPIQVFVMPNGQTIVRIKFPNGKKGWMPADDLDELLKNPFEIERVSAGGS [r16_105_TrROS],folding stability dG unfold,[1],1.21 ± 0.023 kcal/mol
same,folding stability dG unfold,[2],1.11 ± 0.14 kcal/mol
same,folding stability dG unfold,[3],0.998 ± 0.14 kcal/mol
SAGGDPVRIFIMSGNGIFPIEIPLDPGEKVEFEMKFNGQEVTITITPGDGEIEIEMPPGFNIMALEPSAGGS [r16_761_TrROS],folding stability dG unfold,[1],1.59 ± 0.086 kcal/mol
same,folding stability dG unfold,[2],1.89 ± 0.11 kcal/mol
same,folding stability dG unfold,[3],2.05 ± 0.038 kcal/mol
